Test results from US20100021480A1, “BIOACTIVE SUBSTANCE-BLOOD PROTEIN CONJUGATE AND STABILIZATION OF A BIOACTIVE SUBSTANCE USING THE SAME” (priority 2005, published 2010).

Legend:
[1] = biological target: activated albumin 21 (human serum albumin whose Cys34 free thiol is substituted by a disulfanyl group with aldrithiol) (human) (UniProt P02768); test: albumin binding test: 50 µl of 1 mM Compound 15 with 50 µl of 1 mM activated albumin, HPLC of supernatant (unbound peptide)
[2] = biological target: activated albumin 21 (human serum albumin whose Cys34 free thiol is substituted by a disulfanyl group with aldrithiol) (human) (UniProt P02768); test: albumin binding test: 20 µl of 1 mM Compound 15 with 50 µl of 1 mM activated albumin in 100 µl PBS, 37 C 30 min, methanol precipitation, HPLC of supernatant (unbound peptide)
[3] = biological target: activated albumin 21 (human serum albumin whose Cys34 free thiol is substituted by a disulfanyl group with aldrithiol) (human) (UniProt P02768); test: albumin binding test: 50 µl of 1 mM Compound 15 with 40 µl of 1 mM activated albumin, HPLC of supernatant (unbound peptide)
[4] = biological target: activated albumin 21 (human serum albumin whose Cys34 free thiol is substituted by a disulfanyl group with aldrithiol) (human) (UniProt P02768); test: albumin binding test: 40 µl of 1 mM Compound 15 with 50 µl of 1 mM activated albumin in 100 µl PBS, 37 C 30 min, methanol precipitation, HPLC of supernatant (unbound peptide)
[5] = biological target: activated albumin 21 (human serum albumin whose Cys34 free thiol is substituted by a disulfanyl group with aldrithiol) (human) (UniProt P02768); test: albumin binding test: 50 µl of 1 mM Compound 15 with 50 µl of 1 mM activated albumin in 100 µl, 37 C 30 min, methanol precipitation, HPLC of supernatant (unbound peptide)
[6] = biological target: activated albumin 21 (human serum albumin whose Cys34 free thiol is substituted by a disulfanyl group with aldrithiol) (human) (UniProt P02768); test: albumin binding test: 40 µl of 1 mM Compound 15 with 50 µl of 1 mM activated albumin, HPLC of supernatant (unbound peptide)
[7] = biological target: activated albumin 21 (human serum albumin whose Cys34 free thiol is substituted by a disulfanyl group with aldrithiol) (human) (UniProt P02768); test: albumin binding test: 20 µl of 1 mM Compound 15 with 50 µl of 1 mM activated albumin, HPLC of supernatant (unbound peptide)
[8] = biological target: activated albumin 21 (human serum albumin whose Cys34 free thiol is substituted by a disulfanyl group with aldrithiol) (human) (UniProt P02768); test: albumin binding test: 50 µl of 1 mM Compound 15 with 40 µl of 1 mM activated albumin in 100 µl PBS, 37 C 30 min, methanol precipitation, HPLC of supernatant (unbound peptide)

Sequence of activated albumin 21 (human serum albumin whose Cys34 free thiol is substituted by a disulfanyl group with aldrithiol) (human) (P02768 25-609 limits assumed): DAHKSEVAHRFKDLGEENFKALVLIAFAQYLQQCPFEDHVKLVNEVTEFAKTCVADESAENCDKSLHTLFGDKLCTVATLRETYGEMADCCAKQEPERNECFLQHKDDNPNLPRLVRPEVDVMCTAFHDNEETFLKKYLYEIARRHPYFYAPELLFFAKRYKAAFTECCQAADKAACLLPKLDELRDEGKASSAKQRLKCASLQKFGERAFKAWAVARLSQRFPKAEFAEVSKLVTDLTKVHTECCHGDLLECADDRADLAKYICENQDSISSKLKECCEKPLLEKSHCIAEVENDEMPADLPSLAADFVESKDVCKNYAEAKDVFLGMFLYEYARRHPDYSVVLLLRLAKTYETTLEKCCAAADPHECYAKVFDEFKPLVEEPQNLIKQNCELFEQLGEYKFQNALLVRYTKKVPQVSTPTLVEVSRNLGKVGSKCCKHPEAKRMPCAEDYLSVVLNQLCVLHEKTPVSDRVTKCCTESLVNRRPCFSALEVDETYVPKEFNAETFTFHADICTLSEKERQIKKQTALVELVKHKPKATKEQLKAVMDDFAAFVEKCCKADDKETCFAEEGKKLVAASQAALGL

PA 20.6 min/4.4M (peak area against that of 10 µl Compound 15 alone) [1]: 3.3 | PA 20.6 min (HPLC peak area of Compound 15 left in the supernatant) [2]: 1.3e+06 peak area | PA 20.6 min/4.4M (peak area against that of 10 µl Compound 15 alone) [3]: 4 | PA 20.6 min (HPLC peak area of Compound 15 left in the supernatant) [4]: 9.8e+06 peak area | PA 20.6 min (HPLC peak area of Compound 15 left in the supernatant) [5]: 1.47e+07 peak area | PA 20.6 min/4.4M (peak area against that of 10 µl Compound 15 alone) [6]: 2.2 | PA 20.6 min/4.4M (peak area against that of 10 µl Compound 15 alone) [7]: 0.3 | PA 20.6 min (HPLC peak area of Compound 15 left in the supernatant) [8]: 1.79e+07 peak area
Substance: Compound 15: Leuprolide-GSG-Lys-[ε-AEEA-CO-(CH2)2-SH]-NH2.2TFA (peptide)
